According to the Human Domainome abundance scans (Beltran et al. 2025):

B1: POU domain, class 4, transcription factor 2, residues 256 to 327; numbered along this chain, Q12837 (parent)
chain: RDLEAFAERFKQRRIKLGVTQADVGSALANLKIPGVGSLSQSTICRFESLTLSHNNMIALKPILQAWLEEAE

Variants of: B1
Assay: abundance fitness (aPCA) (normalised: wild type 0, dead -1); higher = more abundant; growth selection in yeast, the domain comes from the species named
Conditions: Homo sapiens

Abundance fitness: each site, then its substitutions
S38: K -0.127, Y 0.026, T -0.083, W -0.209, Q -0.051, L -0.045, I -0.146, V -0.159, E -0.127, R -0.022, D -0.277, C -0.092, A -0.013, H 0.104, G -0.091, N 0.133
S42: N -0.28, K 0.068, W -0.359, L -0.152, R -0.085, C -0.325, P -0.381, I -0.272, F -0.494, V -0.113, H 0.085, T -0.054, G -0.11, E 0.107, Q -0.084
L28: S -0.636, R -0.643, Y -0.747, P -0.935, V -0.143, D -0.596, M 0.008, T -0.528, I 0.072, H -0.786, E -0.657, A -0.654, W -0.597, F -0.215
G35: D -0.36, E -0.435, P -0.77, V -0.299, K -0.389, R -0.153, A -0.323, N -0.116, Y -0.763, T -0.365, W -0.525, L -0.329, H -0.528, F -0.084, C -0.512, S -0.228
P34: R -0.231, W -0.528, C -0.679, K -0.008, I -0.402, Q -0.263, H -0.073, A -0.244, D -0.221, G -0.1, S -0.106, E -0.036, T -0.275, Y -0.515, M -0.175
V36: Q -0.147, T -0.417, E -0.139, K -0.532, F -0.176, A -0.18, I 0.166, R -0.617, C -0.4, Y -0.047, M -0.203, L 0.061, D -0.278, H -0.267, N -0.387, S -0.186
K32: I -0.181, R -0.084, N 0.189, M -0.215, E 0.052, W -0.188, D 0.054, H -0.178, Y 0.061, T -0.112, P -0.33, S -0.072, L -0.279, C -0.192, G -0.24, V -0.021, Q -0.012, F -0.372
N30: C -0.094, R -0.189, M -0.5, T -0.112, S -0.059, I -0.766, K 0.054, H -0.087, Y -0.183, W -0.315, Q -0.059, A -0.116, V -0.432, G -0.103, L -0.244, P -0.146, E -0.456
A27: P -0.941, H -0.172, Q 0.068, T -0.434, V -0.265, L -0.302, W -0.174, F -0.114, N -0.323, G -0.39, E -0.029, M -0.234, C -0.215, D -0.123, S -0.114, R -0.178
L31: Y 0.041, H -0.379, I 0.057, A -0.426, C -0.102, P -0.382, G -0.572, R -0.081, M 0.032, E -0.112, Q 0.058, D -0.509, T -0.149, K 0.002, F -0.018, W 0.038
A29: K 0.042, C -0.136, W -0.799, H -0.198, F -0.544, M -0.046, Y -0.165, N -0.116, E -0.239, S 0.019, I -0.323, G -0.009, Q 0.108, V -0.237, L -0.158, T -0.107, D 0.03
I33: Y -0.126, V 0.008, W -0.414, Q -0.426, C -0.395, N -0.434, H -0.438, L -0.081, F -0.211, E -0.205, A -0.295, M -0.162, K -0.421, T -0.311, S -0.274, D -0.225, G -0.116, P -0.357
T43: D -0.114, I 0.207, F -0.289, A -0.271, V -0.01, R -0.632, M -0.068, L -0.053, W -0.282, S -0.353, Q -0.452, H -0.274, E -0.574, C -0.232, K -0.624, G -0.792
G37: F -0.398, K -0.209, R -0.111, E -0.207, W -0.68, D -0.198, C -0.118, Y -0.418, H 0.083, I -0.587, N -0.309, L -0.205, Q -0.015, A -0.098, P -0.2, T -0.162, V -0.269, S 0.028, M -0.163
S40: C -0.131, N -0.108, L -0.671, R -0.312, G 0.014, Q -0.293, D 0.016, E -0.15, V -0.385, H -0.228, P -0.193, W -0.779, M -0.723, A -0.203, T 0.092, Y -0.685
L39: D -0.413, G -0.499, F -0.181, W -0.387, N -0.615, C -0.168, Y -0.53, K -0.141, T -0.204, P -0.258, M -0.01, R -0.718, Q -0.732, S -0.304
Q41: V -0.187, K 0.054, W -0.06, D -0.058, I -0.275, F -0.335, G 0.041, P -0.046, L -0.289, H 0.089, T 0.077, R -0.061, S -0.044, C -0.37, E 0.111
C45: N 0.091, A 0.036, E 0.156, M -0.251, G 0.02, F -0.041, H 0.039, D -0.135, I -0.261, K -0.098, L -0.157
G25: A -0.006, E 0.127, R -0.283, C 0.131, D -0.501, K -0.264, Y -0.404, L -0.031, P -0.487, W -0.116, I -0.145, S 0.166, M -0.242, Q -0.207, N -0.593, T 0.117, F -0.494
I44: Y -0.019, R -0.973, L -0.392, E -0.652, P -0.923, C -0.643, M -0.87, F -0.913, S -0.963, W -1.03, A -1, K -0.065, D -0.771, V -0.168
S26: V -0.234, K -0.176, W 0.008, Y -0.05, N 0.239, L 0.061, H -0.059, R 0.062, Q -0.07, A 0.176, I -0.275, T -0.08, E 0.048, G -0.164, F -0.032, D -0.076, M -0.057, P -0.694
